Measured values: publication PMC7234810 (2020)

What was measured:
[1] = biological target: HpBARI expressed with C-terminal tags (Heligmosomoides polygyrus); assay: SPR
[2] = biological target: H. polygyrus Binds Alarmin Receptor and Inhibits (HpBARI), N-terminal tagged (Heligmosomoides polygyrus); assay: SPR

B1: Mouse IL-33-TRAP-Fc (a fusion protein of ST2 and IL-1RAcP with an Fc tag) (Fc fusion)
chain: SKSSWGLENEALIVRCPQRGRSTYPVEWYYSDTNESIPTQKRNRIFVSRDRLKFLPARVEDSGIYACVIRSPNLNKTGYLNVTIHKKPPSCNIPDYLMYSTVRGSDKNFKITCPTIDLYNWTAPVQWFKNCKALQEPRFRAHRSYLFIDNVTHDDEGDYTCQFTHAENGTNYIVTATRSFTVEEKGFSMFPVITNPPYNHTMEVEIGKPASIACSACFGKGSHFLADVLWQINKTVVGNFGEARIQEEEGRNESSSNDMDCLTSVLRITGVTEKDLSLEYDCLALNLHGMIRHTIRLRRKQPIDHRSERCDDWGLDTMRQIQVFEDEPARIKCPLFEHFLKYNYSTAHSSGLTLIWYWTRQDRDLEEPINFRLPENRISKEKDVLWFRPTLLNDTGNYTCMLRNTTYCSKVAFPLEVVQKDSCFNSAMRFPVHKMYIEHGIHKITCPNVDGYFPSSVKPSVTWYKGCTEIVDFHNVLPEGMNLSFFIPLVSNNGNYTCVVTYPENGRLFHLTRTVTVKVVGSPKDALPPQIYSPNDRVVYEKEPGEELVIPCKVYFSFIMDSHNEVWWTIDGKKPDDVTVDITINESVSYSSTEDETRTQILSIKKVTPEDLRRNYVCHARNTKGEAEQAAKVKQKVIPPRYTVELACGFGAT
Binder B1 has a koff [1] of about 0.13 s⁻¹ and a koff [2] of about 0.04 s⁻¹.
